This note sets out measurements from paper PMC3485628.

Test [1] addresses a commercial source of HSPG. As to the kind of experiment: ELISA; capture antibody CSI 001-71 (anti-Pln.D1) coated, then rhPln.247 (1 ug/ml) or HSPG, then dilutions of rhBMP-2; retained BMP detected with anti-BMP antibodies; background subtracted; apparent Kd. (ELISA stands for enzyme-linked immunosorbent assay.)
For test [2], the target named is a commercial source of HSPG. The description is as above. The source holds these as a separate data set.
Test [3] concerns the target recombinant human perlecan domain 1 proteoglycan rhPln.247 (human) (UniProt P98160). Described as above.
For test [4] the target is unchanged. As to the kind of experiment: ELISA; rhPln.247 coated directly on polystyrene microtiter wells overnight at 4°C in PBS/N3 at about 1-2 ug/ml; rhBMP-2 or rhBMP-7 serially diluted; retained BMP detected with biotinylated anti-BMP antibodies; background without rhPln.247 subtracted; apparent Kd.
Test [5] shares this target. Described as above. The source holds these as a separate data set.

Where two headings read alike, the source gives them in different places.

recombinant human perlecan domain 1 proteoglycan rhPln.247 (human), sequence (P98160 22-247): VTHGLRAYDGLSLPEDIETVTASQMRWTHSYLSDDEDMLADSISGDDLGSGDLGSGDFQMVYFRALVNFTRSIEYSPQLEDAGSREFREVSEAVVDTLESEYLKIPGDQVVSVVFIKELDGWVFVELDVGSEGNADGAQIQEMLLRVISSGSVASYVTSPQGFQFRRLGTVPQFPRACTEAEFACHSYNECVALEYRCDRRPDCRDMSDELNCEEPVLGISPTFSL
recombinant human bone morphogenetic protein-2, sequence (P12643 283-396): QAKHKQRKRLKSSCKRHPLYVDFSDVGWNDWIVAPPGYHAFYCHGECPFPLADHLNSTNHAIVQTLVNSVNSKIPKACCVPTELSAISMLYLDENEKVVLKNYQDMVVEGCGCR

On to “recombinant human bone morphogenetic protein-2 (from UniProt P12643 283-396) (ligand)”, for which the Kd in test [1] was 150 nM; in test [2], 0.15 nM; in test [3], 0.6 nM; in test [4] it was 0.573 nM; in test [5], 0.4 nM.
